Square brackets hold non-standard residues; d marks the D form. Ends that are not written are not given here. Arg(Me2a) = CN(C)C(=N)NCCC[C@H](N)C(=O)O; Lys(Me3) = C[N+](C)(C)CCCC[C@H](N)C(=O)O
Key:
[1] = molecular target: nucleosome core particle (Xenopus laevis recombinant histone octamer on 147 bp 601 DNA) (Xenopus laevis); assay: native gel or EMSA
[2] = molecular target: RcATXR5 (ATXR5 SET domain) (Ricinus communis, UniProt B9RU15); assay type: binding
[3] = molecular target: T1, SET domain of Ricinus communis ATXR5 (a.a. 158-374) (Ricinus communis, UniProt B9RU15 158-374); assay: crystal structure
T1 sequence: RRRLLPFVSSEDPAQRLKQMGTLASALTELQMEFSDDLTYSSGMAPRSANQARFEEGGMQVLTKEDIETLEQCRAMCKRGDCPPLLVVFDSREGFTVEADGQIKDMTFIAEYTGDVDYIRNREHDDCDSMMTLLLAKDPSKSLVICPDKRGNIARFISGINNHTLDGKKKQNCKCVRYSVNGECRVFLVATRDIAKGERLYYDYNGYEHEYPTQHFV

“full-length Glycine max ATXR5 (a.a. 1-334) (enzyme)” gave a Kd [1] of 380 nM.

With Nc1ncnc2c1ncn2[C@@H]1O[C@H](C[C@@H](N)CC[C@H](N)C(=O)O)[C@@H](O)[C@H]1O [SFG, sinefungin] the “GST pull-down, compound-dependent association with GST-PHD” value [2] was “PHD domain of ATXR5 senses the binding of sinefungin to the SET domain”.

KQLATKAA[Arg(Me2a)]KSAPATGGVKY (not fully specified) [histone H3.1 peptide (a.a. 18-36) R26me2a]: binds [3].

KQLATKAA[Rme1]KSAPATGGVKY [histone H3.1 peptide (a.a. 18-36) R26me1]: binds [3].

KQLATKAARKSAPATGGV[Lys(Me3)]Y [histone H3.1 peptide (a.a. 18-36) K36me3]: binds [3].
